We go through two proteins from paper PMC4465122 (EBioMedicine, 2015).

The data set deals with the molecule itself. Kind of data set: cross-linking.

B1: recombinant human prolidase (rhPEPD) (enzyme)
chain: MAAATGPSFWLGNETLKVPLALFALNRQRLCERLRKNPAVQAGSIVVLQGGEETQRYCTDTGVLFRQESFFHWAFGVTEPGCYGVIDVDTGKSTLFVPRLPASHATWMGKIHSKEHFKEKYAVDDVQYVDEIASVLTSQKPSVLLTLRGVNTDSGSVCREASFDGISKFEVNNTILHPEIVECRVFKTDMELEVLRYTNKISSEAHREVMKAVKVGMKEYELESLFEHYCYSRGGMRHSSYTCICGSGENSAVLHYGHAGAPNDRTIQNGDMCLFDMGGEYYCFASDITCSFPANGKFTADQKAVYEAVLRSSRAVMGAMKPGVWWPDMHRLADRIHLEELAHMGILSGSVDAMVQAHLGAVFMPHGLGHFLGIDVHDVGGYPEGVERIDEPGLRSLRTARHLQPGMVLTVEPGIYFIDHLLDEALADPARASFLNREVLQRFRGFGGVRIEEDVVVTDSGIELLTCVPRTVEEIEACMAGCDKAFTPFSGPK
For orientation: stoichiometry N means the number of molecules, sites or subunits per partner or assembly. For B1, the “stoichiometry N” value amounted to 2.

B2: rhPEPD^G278D, enzymatically inactive mutant of recombinant human prolidase (enzyme)
chain: MAAATGPSFWLGNETLKVPLALFALNRQRLCERLRKNPAVQAGSIVVLQGGEETQRYCTDTGVLFRQESFFHWAFGVTEPGCYGVIDVDTGKSTLFVPRLPASHATWMGKIHSKEHFKEKYAVDDVQYVDEIASVLTSQKPSVLLTLRGVNTDSGSVCREASFDGISKFEVNNTILHPEIVECRVFKTDMELEVLRYTNKISSEAHREVMKAVKVGMKEYELESLFEHYCYSRGGMRHSSYTCICGSGENSAVLHYGHAGAPNDRTIQNGDMCLFDMDGEYYCFASDITCSFPANGKFTADQKAVYEAVLRSSRAVMGAMKPGVWWPDMHRLADRIHLEELAHMGILSGSVDAMVQAHLGAVFMPHGLGHFLGIDVHDVGGYPEGVERIDEPGLRSLRTARHLQPGMVLTVEPGIYFIDHLLDEALADPARASFLNREVLQRFRGFGGVRIEEDVVVTDSGIELLTCVPRTVEEIEACMAGCDKAFTPFSGPK
Take B2: the “stoichiometry N” value was found to be 2.
